Measured values published in patent US20160272706A1 (AstraZeneca / MedImmune, published 2016).
Changes are numbered by the printed parent chain. Names and notes keep the numbering of the source.

B1: BAK1183H4 antibody (antibody, V domains shown)
VH: QVQLVQSGAEVKKPGASVKVSCKASGYTFTNYGLSWVRQAPGQGLEWMGWINYDGGNTQYGQEFQGRVTMTTDTSTSTAYMELRSLRSDDTAVYYCARDSSSSWARWFFDLWGRGTLVTVSS
VL: SYVLTQPPSVSVAPGKTARIPCGGNIIGSKLVHWYQQKPGQAPVLVIYDDGDRPSGIPERFSGSNSGNTATLTISRVEAGDEADYYCQVWDTGSDPVVFGGGTKLTVL
notes: also called 1183H04; BAK1183H04
B2: 13NG0073 (antibody, V domains shown)
VH: B1 VH
VL: B1 VL with I26L, S29A, K30R, V46I, Y48M, G51I, D95R
notes: IgG in the KinExA assay; also called IL13NG0073
B3: 13NG0074 (antibody, V domains shown)
VH: B1 VH
VL: B1 VL with I26L, S29A, K30R, V46I, I47M, Y48F, G51Q, D95L
notes: IgG in the KinExA assay
B4: 13NG0088 (scFv, V domains shown)
VH: B1 VH
VL: B1 VL with I26L, S29A, K30R, Y48M, G51I, D95R
notes: purified scFv from the mini-recombination library; member of group m20; also called ZZ0SEC-C01; copies: 1 + 1
B5: 1183H4_VH_VL_nonGL IgG1-YTE (antibody, V domains shown)
VH: B1 VH
VL: B1 VL
notes: Non-germlined parent as IgG1 with the YTE mutations (M252Y/S254T/T256E, EU); also called Parent IgG1-YTE; parent clone

Experiments:
Human IL-13 [1] = target: T1, Human IL-13 (human, UniProt P35225 35-146); assay: IC50 of the parent scFv divided by IC50 of the clone, biochemical receptor-ligand inhibition assay, purified scFv
T1 construct: also called human interleukin 13 (Peprotech); the antigen

Human IL-13 [2] = target: T1, Human IL-13; assay: biochemical receptor-ligand inhibition assay, purified scFv titrated; the IL-13 receptor used is not named in Example 1
Human IL-13 [3] = target: T1, Human IL-13; assay: biochemical receptor-ligand inhibition assay, purified scFv titrated (second panel); the IL-13 receptor used is not named in Example 1
Human IL-13 [4] = target: T1, Human IL-13; assay: BIAcore
Human IL-13 [5] = target: T1, Human IL-13; assay: IC50 of the parent scFv divided by IC50 of the clone, biochemical receptor-ligand inhibition assay, purified scFv (second panel)
Human IL-13 [6] = target: T1, Human IL-13; assay: KinExA at 37° C., IgG fixed at 100 or 4 pM, human IL-13 titrated
[7] = target: FLAG-tagged human IL-13 (R130 variant) (human, UniProt P35225 35-146); assay: HTRF receptor-ligand competition; FLAG-tagged human IL-13 (312.5 pM) against DyLight650-labelled human IL-13Rα2 (10 nM); geometric mean

| Binder | Fld improvement (Human IL-13 [1]) [fold] | IC50 (Human IL-13 [2]) [nM] | IC50 (Human IL-13 [3]) [nM] | Kd (Human IL-13 [4]) [nM] | Fld improvement (Human IL-13 [5]) [fold] | Kd (Human IL-13 [6]) [nM] | IC50 [7] [nM] |
| --- | --- | --- | --- | --- | --- | --- | --- |
| B1 | 1 | 40.6 | 46 | 0.081 | 1 | – | – |
| B2 | 5.02 | 8.09 | – | – | – | 0.0046 | – |
| B3 | 3.76 | 10.8 | – | – | – | 0.004 | – |
| B4 | – | – | 6.53 | – | 7 | – | – |
| B5 | – | – | – | – | – | – | 1.34 |
